For data set [1], the system named is T1, LxVPc1 peptide (synthetic peptide with the LxVP sequence of NFATc1).
T1 sequence: DQYLAVPQHPYQWAK

The subject of data set [2] is mutLxVPc1 peptide (LxVP motif from NFATc1 with the Leucine, Valine and Proline residues replaced by Alanine).

These results are taken from US20100081624.

Turning to “Calcineurin of the Biomol Green Calcineurin assay kit”, the results for the “phosphatase activity of CN on the RII phosphopeptide substrate” value in data set [1] and in data set [2] were “severely blocked in vitro the phosphatase activity of CN on its physiological substrate” and “(but not its mutant version)”, respectively.
